# Measurements from patent US20070203071A1.
# Assays:
# hP1R (human) = hP1R (human) (UniProt Q03431); assay: competition binding, 125I-PTH(1-15) tracer, HKRK-B7 cells
# - = assay: competition binding, 125I-PTH(1-15) tracer, HKRK-B28 cells
# [1] = target: wild-type human P1R (human) (UniProt Q03431); assay: competition binding, 125I-PTH(1-15) tracer, HKRK-B7 cells
# Chain of wild-type human P1R (human) (Q03431 27-593): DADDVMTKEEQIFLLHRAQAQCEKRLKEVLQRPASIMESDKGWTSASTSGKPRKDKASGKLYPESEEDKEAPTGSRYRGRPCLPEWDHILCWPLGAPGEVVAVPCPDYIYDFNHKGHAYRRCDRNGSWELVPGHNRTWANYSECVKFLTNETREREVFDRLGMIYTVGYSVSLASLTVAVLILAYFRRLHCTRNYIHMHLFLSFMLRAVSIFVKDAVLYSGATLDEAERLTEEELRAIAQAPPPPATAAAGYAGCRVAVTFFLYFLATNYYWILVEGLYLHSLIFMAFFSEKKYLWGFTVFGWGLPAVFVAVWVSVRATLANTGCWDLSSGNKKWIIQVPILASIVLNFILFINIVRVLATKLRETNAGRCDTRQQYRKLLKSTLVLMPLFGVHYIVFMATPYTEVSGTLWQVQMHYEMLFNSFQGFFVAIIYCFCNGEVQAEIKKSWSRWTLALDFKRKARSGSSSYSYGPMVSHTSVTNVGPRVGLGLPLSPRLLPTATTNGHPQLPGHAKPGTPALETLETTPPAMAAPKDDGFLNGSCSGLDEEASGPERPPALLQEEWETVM
# Chain of hP1R (human) (Q03431 27-593): as above
# Chain of [Ile^5, Trp^23, Tyr^36]PTHrP(5-36)NH2 (P12272 41-72): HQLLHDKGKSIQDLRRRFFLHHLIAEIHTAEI
Substance,IC50 (-),also measured
PTH(1-34),,IC50 (hP1R (human)): 2 nM
"[Aib1,3,M]PTH(1-21)",18 nM,
"[Aib3,M]PTH(3-21)",750 nM,
"[Ile^5, Trp^23, Tyr^36]PTHrP(5-36)NH2 (from UniProt P12272 41-72)",,IC50 [1]: 50 nM
rPTH(1-34),4.8 nM,
